Reference: PMC4747905, “Structure of BRCA1-BRCT/Abraxas Complex Reveals Phosphorylation-Dependent BRCT Dimerization at DNA Damage Sites” (Molecular Cell, 2016)
Square brackets hold non-standard residues; d marks the D form. Ends that are not written are not given here. pS = N[C@@H](COP(=O)(O)O)C(=O)O

What follows are binders tested against T1, BRCA1 BRCT domains (UniProt P38398 1646-1859) (assay: native MS; peak fractions from gel filtration, 15 μM protein, 300 mM ammonium acetate pH 7.6, nano-electrospray). Details: both partners purified.
T1 construct: BRCA1 tandem BRCT domains (BRCT1 and BRCT2); construct limits are in the Supplemental Information; also called BRCT domain only; source: purified; construction and purification are described in the Supplemental Information

stoichiometry N | Binder
1 | PTRVS[pS]PVFGAT [CtIP phosphopeptide]
1 | GFGEYSR[pS]PTF (Abraxas C-terminal peptide, printed as GFGEYSRpSPTF; source: synthesized peptide) [Abraxas single phosphorylated peptide Ab1p]
1 | ISRST[pS]PTFNKQTK [Bach1 phosphopeptide]

What follows are binders tested against T1, BRCA1 BRCT domains (assay: SEC; BRCT and peptide mixed 1:3 (molar), final 1 mg/ml (about 40 μM), Superdex 75 10/300, Buffer A, 0.5 ml/min). Details: both partners purified.

binding result | Binder
binds | Y[pS]R[pS]PTF (Abraxas C-terminal peptide without GFGE, printed as YpSRpSPTF; source: synthesized peptide) [Abraxas double phosphorylated peptide Ab2p_short]
binds | A[pS]R[pS]PTF (peptide, UniProt Q6UWZ7 403-409, looked up, also called Abraxas(Y403A)_short) [Abraxas peptide Ab2p(Y403A_short)]
binds | GFGEYPR[pS]PTF (peptide, UniProt Q6UWZ7 399-409, looked up, Abraxas C-terminal peptide, as Ab1p (GFGEYSRpSPTF) with S404P) [Abraxas peptide Ab1p (S404P)]
binds | GFGEA[pS]R[pS]PTF (peptide, UniProt Q6UWZ7 399-409, looked up, Abraxas C-terminal peptide, as Ab2p (GFGEYpSRpSPTF) with Y403A) [Abraxas peptide Ab2p(Y403A)]
binds | GFGEYDR[pS]PTF (peptide, UniProt Q6UWZ7 399-409, looked up, Abraxas C-terminal peptide, as Ab1p (GFGEYSRpSPTF) with the phosphomimetic S404D) [Abraxas peptide Ab1p (S404D)]
binds | GFGRY[pS]R[pS]PTF (peptide, UniProt Q6UWZ7 399-409, looked up, Abraxas C-terminal peptide, as Ab2p (GFGEYpSRpSPTF) with E402R) [Abraxas peptide Ab2p(E402R)]
binds | GDGEY[pS]R[pS]PTF (peptide, UniProt Q6UWZ7 399-409, looked up, Abraxas C-terminal peptide, as Ab2p (GFGEYpSRpSPTF) with F400D) [Abraxas peptide Ab2p (F400D)]

Target: the molecule itself
Assay: as above
Details: not given

Binder | binding result
BRCT-Ab2p_short complex (complex, phosphoserine at S404 and S406, as m1: BRCA1 tandem BRCT domains; limits in the Supplemental Information; as m5: Abraxas C-terminal peptide YpSRpSPTF; the 1:1 unit of m1 and m5; source: purified BRCT mixed with peptide at 1:3 molar ratio) VNKRMSMVVSGLTPEEFMLVYKFARKHHITLTNLITEETTHVVMKTDAEFVCERTLKYFLGIAGGKWVVSYFWVTQSIKERKMLNEHDFEVRGDVVNGRNHQGPKRARESQDRKIFRGLEICCYGPFTNMPTDQLEWMVQLCGASVVKELSSFTLGTGVHPIVVVQPDAWTEDNGFHAIGQMCEAPVVTREWVLDSVALYQCQELDTYLIPQIP peptide: YSRSPTF | binds
